In patent publication US20150259426A1 (Novartis, published 2015):
One block for each binder: values may come before it.

Target: cell-bound human DR5 (Colo205 and other human cell lines) (human, UniProt O14763 56-440)
Test: cell-based or functional assay

fold improvement of IC50, penta against tetra, A549: 1 fold
fold improvement of IC50, penta against tetra, BxPC-3: 6 fold
fold improvement of IC50, penta against tetra, Colo205: 5 fold
fold improvement of IC50, penta against tetra, H226: 5 fold
fold improvement of IC50, penta against tetra, H2122: 7 fold
fold improvement of IC50, penta against tetra, Jurkat (72): 5 fold
fold improvement of IC50, penta against tetra, M30: 1 fold
fold improvement of IC50, penta against tetra, MiaPaCa-2: 5 fold
fold improvement of IC50, penta against tetra, Panc-1: 22 fold
fold improvement of IC50, penta against tetra, T24: 10 fold
B1: 4E6-Hu penta (4E6 hu pentamer) (other)
chain: EVQLLESGGGLVQPGGSLRLSCAASGRTFGSIRVGWFRQAPGKGREFVSAINRNDGTTYYADSVKGRFTISRDNSKNTVYLQMNSLRPEDTAVYYCAAGLQYNRAADRVPVGAVYWGQGTLVTVSSGGGGSGGGGSGGGGSGGGGSGGGGSGGGGSGGGGSEVQLLESGGGLVQPGGSLRLSCAASGRTFGSIRVGWFRQAPGKGREFVSAINRNDGTTYYADSVKGRFTISRDNSKNTVYLQMNSLRPEDTAVYYCAAGLQYNRAADRVPVGAVYWGQGTLVTVSSGGGGSGGGGSGGGGSGGGGSGGGGSGGGGSGGGGSEVQLLESGGGLVQPGGSLRLSCAASGRTFGSIRVGWFRQAPGKGREFVSAINRNDGTTYYADSVKGRFTISRDNSKNTVYLQMNSLRPEDTAVYYCAAGLQYNRAADRVPVGAVYWGQGTLVTVSSGGGGSGGGGSGGGGSGGGGSGGGGSGGGGSGGGGSEVQLLESGGGLVQPGGSLRLSCAASGRTFGSIRVGWFRQAPGKGREFVSAINRNDGTTYYADSVKGRFTISRDNSKNTVYLQMNSLRPEDTAVYYCAAGLQYNRAADRVPVGAVYWGQGTLVTVSSGGGGSGGGGSGGGGSGGGGSGGGGSGGGGSGGGGSEVQLLESGGGLVQPGGSLRLSCAASGRTFGSIRVGWFRQAPGKGREFVSAINRNDGTTYYADSVKGRFTISRDNSKNTVYLQMNSLRPEDTAVYYCAAGLQYNRAADRVPVGAVYWGQGTLVTVSS
IC50, cell survival, A549: > 10000 pM
IC50, cell survival, BxPC-3: 5 pM
IC50, cell survival, Colo205: 0.7 pM
IC50, cell survival, H226: 27.2 pM
IC50, cell survival, H2122: 0.8 pM
IC50, cell survival, Jurkat (72): 3.6 pM
IC50, cell survival, M30: > 10000 pM
IC50, cell survival, MiaPaCa-2: 3.8 pM
IC50, cell survival, Panc-1: 10.5 pM
IC50, cell survival, T24: 4.3 pM

fold improvement of IC50, penta against tetra, A549: 1 fold
fold improvement of IC50, penta against tetra, BxPC-3: 3 fold
fold improvement of IC50, penta against tetra, Colo205: 3 fold
fold improvement of IC50, penta against tetra, H226: 14 fold
fold improvement of IC50, penta against tetra, H2122: 2 fold
fold improvement of IC50, penta against tetra, Jurkat (72): 4 fold
fold improvement of IC50, penta against tetra, M30: 1 fold
fold improvement of IC50, penta against tetra, MiaPaCa-2: 4 fold
fold improvement of IC50, penta against tetra, Panc-1: 35 fold
fold improvement of IC50, penta against tetra, T24: 7 fold
B2: 11H6-Hu penta (11H6 hu pentamer) (other)
chain: EVQLLESGGGLVQPGGSLRLSCAASGTFDKINNMGWYRQAPGKQRDLVAQITPGGITDYADSVKGRFTISRDNSKNTLYLQMNSLRPEDTAVYYCNAEILKRAYIDVYVNYWGQGTLVTVSSGGGGSGGGGSGGGGSGGGGSGGGGSGGGGSGGGGSEVQLLESGGGLVQPGGSLRLSCAASGTFDKINNMGWYRQAPGKQRDLVAQITPGGITDYADSVKGRFTISRDNSKNTLYLQMNSLRPEDTAVYYCNAEILKRAYIDVYVNYWGQGTLVTVSSGGGGSGGGGSGGGGSGGGGSGGGGSGGGGSGGGGSEVQLLESGGGLVQPGGSLRLSCAASGTFDKINNMGWYRQAPGKQRDLVAQITPGGITDYADSVKGRFTISRDNSKNTLYLQMNSLRPEDTAVYYCNAEILKRAYIDVYVNYWGQGTLVTVSSGGGGSGGGGSGGGGSGGGGSGGGGSGGGGSGGGGSEVQLLESGGGLVQPGGSLRLSCAASGTFDKINNMGWYRQAPGKQRDLVAQITPGGITDYADSVKGRFTISRDNSKNTLYLQMNSLRPEDTAVYYCNAEILKRAYIDVYVNYWGQGTLVTVSSGGGGSGGGGSGGGGSGGGGSGGGGSGGGGSGGGGSEVQLLESGGGLVQPGGSLRLSCAASGTFDKINNMGWYRQAPGKQRDLVAQITPGGITDYADSVKGRFTISRDNSKNTLYLQMNSLRPEDTAVYYCNAEILKRAYIDVYVNYWGQGTLVTVSS
IC50, cell survival, A549: > 10000 pM
IC50, cell survival, BxPC-3: 4.6 pM
IC50, cell survival, Colo205: 1.2 pM
IC50, cell survival, H226: 12.4 pM
IC50, cell survival, H2122: 1.7 pM
IC50, cell survival, Jurkat (72): 1.7 pM
IC50, cell survival, M30: > 10000 pM
IC50, cell survival, MiaPaCa-2: 3.1 pM
IC50, cell survival, Panc-1: 6.7 pM
IC50, cell survival, T24: 3.1 pM
